Data set [1] concerns the target PaCgi121;PaBud32;PaKae1;PaPcc2-His6 (Pyrococcus abyssi;Pyrococcus abyssi;Pyrococcus abyssi;Pyrococcus abyssi) (UniProt Q9UZ62+Q9UYB9+Q9UXT7+A0A915Q983). The experiment in a line: fluorescence anisotropy. The note with it: CBKP2 complex; 3 mM Mg2+; 10 nM tRNA (Suppl. Fig. 7C); 20 mM Tris-HCl pH 8, 150 mM KCl, 3 mM MgCl2, 1% glycerol, 1 nM labelled tRNA (10 nM in Suppl. Fig. 7C), 20 °C, 15 min. (In fluorescence polarisation assays a small probe gives low polarisation when free and higher when bound to something large.)

Data set [2] has as its target PaCgi121;PaBud32;PaKae1;PaPcc1-His6;PaPcc2-Strep (Pyrococcus abyssi;Pyrococcus abyssi;Pyrococcus abyssi;Pyrococcus abyssi;Pyrococcus abyssi) (UniProt Q9UZ62+Q9UYB9+Q9UXT7+Q9V1Z9+A0A915Q984). The experiment in a line: fluorescence anisotropy. The following applies: CBKP1P2 complex; 3 mM Mg2+; n=3; 20 mM Tris-HCl pH 8, 150 mM KCl, 3 mM MgCl2, 1% glycerol, 1 nM labelled tRNA (10 nM in Suppl. Fig. 7C), 20 °C, 15 min.

Data set [3] has as its target CBKP2, PaKEOPS complex with PaPcc2 in place of PaPcc1 (PaCgi121/PaBud32/PaKae1/PaPcc2) (Pyrococcus abyssi) (UniProt Q9UXT7). The experiment in a line: SEC-SAXS; purified complexes loaded at 2.55 (CBKP1P2), 0.72 (CBKP1) and 3 mg/ml (CBKP2) on a Bio-SEC3 column; 20 mM Tris pH 8.5, 300 mM NaCl, 5 mM 2-mercaptoethanol, 5% glycerol. On the technique in general: In gel filtration, larger molecules generally elute earlier.

Data set [4] concerns the target PaPcc2 with C-terminal hexa-histidine tag (Pyrococcus abyssi Pcc2) (Pyrococcus abyssi). The experiment in a line: SEC; Ni-NTA eluate on HiLoad 16/600 Superdex 200 pg or Superdex 75 pg; 20 mM Tris-HCl pH 8, 500 mM KCl, 10% glycerol, 5 mM ß-mercaptoethanol.

Sequence of PaCgi121;PaBud32;PaKae1;PaPcc2-His6 (Pyrococcus abyssi;Pyrococcus abyssi;Pyrococcus abyssi;Pyrococcus abyssi) (Q9UZ62 whole entry, chain 1 of 4): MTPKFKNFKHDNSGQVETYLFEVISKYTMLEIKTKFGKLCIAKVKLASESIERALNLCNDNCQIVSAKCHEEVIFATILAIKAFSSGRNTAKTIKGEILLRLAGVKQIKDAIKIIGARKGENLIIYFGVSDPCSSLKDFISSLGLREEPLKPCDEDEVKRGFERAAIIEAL
Sequence of PaCgi121;PaBud32;PaKae1;PaPcc2-His6 (Pyrococcus abyssi;Pyrococcus abyssi;Pyrococcus abyssi;Pyrococcus abyssi) (Q9UYB9 whole entry, chain 2 of 4): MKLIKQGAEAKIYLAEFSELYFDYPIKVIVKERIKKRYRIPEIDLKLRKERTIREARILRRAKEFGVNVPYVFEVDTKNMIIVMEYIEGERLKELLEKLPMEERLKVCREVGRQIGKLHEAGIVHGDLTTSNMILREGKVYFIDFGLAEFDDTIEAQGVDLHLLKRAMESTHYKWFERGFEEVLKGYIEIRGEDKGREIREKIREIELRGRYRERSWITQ
Sequence of PaCgi121;PaBud32;PaKae1;PaPcc2-His6 (Pyrococcus abyssi;Pyrococcus abyssi;Pyrococcus abyssi;Pyrococcus abyssi) (Q9UXT7 whole entry, chain 3 of 4): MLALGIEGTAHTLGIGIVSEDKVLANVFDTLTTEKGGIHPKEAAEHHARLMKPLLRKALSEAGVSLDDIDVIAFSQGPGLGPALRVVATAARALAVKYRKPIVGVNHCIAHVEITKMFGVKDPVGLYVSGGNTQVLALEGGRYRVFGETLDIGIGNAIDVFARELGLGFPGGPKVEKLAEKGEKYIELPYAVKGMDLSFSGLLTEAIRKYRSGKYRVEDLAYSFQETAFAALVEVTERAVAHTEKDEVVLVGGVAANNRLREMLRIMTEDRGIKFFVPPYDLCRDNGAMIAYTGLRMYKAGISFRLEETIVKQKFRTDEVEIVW
Sequence of PaCgi121;PaBud32;PaKae1;PaPcc2-His6 (Pyrococcus abyssi;Pyrococcus abyssi;Pyrococcus abyssi;Pyrococcus abyssi) (chain, as listed by the source, chain 4 of 4): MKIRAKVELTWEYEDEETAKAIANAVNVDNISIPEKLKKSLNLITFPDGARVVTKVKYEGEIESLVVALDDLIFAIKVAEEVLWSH

Regarding “GGGCCGGUAGCUCAGCCUGGUCAGAGCACCGGGCUUUUAACCCGGUGGUCGCGGGUUCAAAUCCCGCCCGGCCCGCCA [Pa_tRNALys (UUU)]”, the Kd in data set [1] turned out to be 1.8 µM; in data set [2], 0.1 µM.
For “CBKP2, PaKEOPS complex with PaPcc2 in place of PaPcc1 (PaCgi121/PaBud32/PaKae1/PaPcc2) (from UniProt Q9UXT7 1-324)”, the stoichiometry N in data set [3] was 2.
In the case of “PaPcc2 with C-terminal hexa-histidine tag (Pyrococcus abyssi Pcc2) (natural protein)”, the stoichiometry N in data set [4] came out at 2.

In general, Kd refers to the constant that tells how readily two partners part at equilibrium. The term stoichiometry N denotes a count of units in the complex or per binding partner.
